Patent US20040120947A1

Biological target: soluble His-tagged Apo-2L (UniProt P50591)
Assay: KinExA; column head 'Affinity (pM)'

Chain of UniProt P50591 (P50591 114-281 limits assumed): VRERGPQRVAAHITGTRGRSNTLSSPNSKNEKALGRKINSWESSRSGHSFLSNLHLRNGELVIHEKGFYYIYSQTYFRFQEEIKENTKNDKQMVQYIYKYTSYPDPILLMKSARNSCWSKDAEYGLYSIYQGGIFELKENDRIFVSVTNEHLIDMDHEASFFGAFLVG

- Kd: 1 pM
Substance: DR5-IgG (Fc fusion)
